Laboratory results as given in patent US20250154283A1 (published 2025).
Changes are numbered by the printed parent chain.

T1: biotinylated human VWF cysteine knot (CK) domain construct (human, biotin on the in vitro biotinylation tag (residue not stated); one N-glycan)
T1 construct: Disulfide-linked homodimer; also called biotinylated human VWF CK domain; human VWF CK domain construct
T1 chain: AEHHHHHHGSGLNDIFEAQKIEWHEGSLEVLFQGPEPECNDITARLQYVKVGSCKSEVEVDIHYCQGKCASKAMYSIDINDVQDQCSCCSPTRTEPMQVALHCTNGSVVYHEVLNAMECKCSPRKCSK

T2: biotinylated cynomolgus monkey VWF cysteine knot (CK) domain construct (cynomolgus monkey, biotinylated in vitro (BirA) on the biotinylation tag; one N-glycan)
T2 construct: Expressed in HEK293 EBNA cells; disulfide-linked homodimer; also called cyno VWF CK; cyno VWF CK domain; not shown: in vitro biotinylation tag, HRV-3C site and 3 VWF residues before the CK domain
T2 chain: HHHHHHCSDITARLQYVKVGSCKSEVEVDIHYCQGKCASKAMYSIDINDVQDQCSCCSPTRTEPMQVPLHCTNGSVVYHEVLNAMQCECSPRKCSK

B1: 9301_Lib8_scFv (scFv, not shown: small tags and cut ends)
scFv: EVQLVESGGGLVQPGRSLRLSCAASGFNFHNYDMHWVRQAPGKGLEWVSAISGSGYTADYADSVEGRFTISRDNAKNSLYLQMNSLRAEDTAVYYCAKSHSSGWSSAFDIWGQGTMVTVSSSGGSTITSYNVYYTKLSSSGTDIQMTQSPSSLSASVGDRVTITCRASQTIGYWLAWYQQKPGKAPKLLIYDASVPESGVPSRFSGSGSGTDFTLTISSLQPEDVATYYCQQTLSSPWTFGGGTKVEIK
B2: 8226_Lib8_scFv (scFv, not shown: small tags and cut ends)
scFv: EVQLVESGGGLVQPGRSLRLSCAASGFNFHNYDMHWVRQAPGKGLEWVSAISGGAVSTDYADSVEGRFTISRDNAKNSLYLQMNSLRAEDTAVYYCARSSWYGGQIDFWGQGTLVTVSSSGGSTITSYNVYYTKLSSSGTDIQMTQSPSSLSASVGDRVTITCRASQDISGWLAWYQQKPGKAPKLLIYAASSLQDGVPSRFSGSGSGTDFTLTISSLQPEDVATYYCQQSYRIPSTFGGGTKVEIK
B3: 1081_Lib8_scFv (scFv, not shown: small tags and cut ends)
scFv: EVQLVESGGGLVQPGRSLRLSCAASGFNFHNYDMHWVRQAPGKGLEWVSAISGGAVSTDYADSVEGRFTISRDNAKNSLYLQMNSLRAEDTAVYYCARSSWYGGQIDFWGQGTLVTVSSSGGSTITSYNVYYTKLSSSGTDIQMTQSPSSLSASVGDRVTITCRASESVSSWLAWYQQKPGKAPKLLIYGASTLEGGVPSRFSGSGSGTDFTLTISSLQPEDVATYYCQQAYRTPVTFGGGTKVEIK
B4: Lib8_P4_C10_scFv (scFv, not shown: small tags and cut ends)
scFv: EVQLVESGGGLVQPGRSLRLSCAASGFNFHNYDMHWVRQAPGKGLEWVSAISGSSDTMDYADSVEGRFTISRDNAKNSLYLQMNSLRAEDTAVYYCVRASWYGTFFDYWGQGTLVTVSSSGGSTITSYNVYYTKLSSSGTDIQMTQSPSSLSASVGDRVTITCRASQDISGWLAWYQQKPGKAPKLLIYAASSLQDGVPSRFSGSGSGTDFTLTISSLQPEDVATYYCQQSYRIPSTFGGGTKVEIK
B5: Lib4_P2_H3_scFv (scFv, not shown: small tags and cut ends)
scFv: QVQLQESGPGLVKPSQTLSLTCTVSGSTFGDYAWSWIRQPPGKGLEWIGYINHIGNADYNPSLKSRVTMSVDTSKNQFSLKVNSVTAADTAVYYCARDGVESPEVPNYYYYGMDVWGQGTTVTVSSSGGSTITSYNVYYTKLSSSGTEIVMTQSPATLSLSPGERATLSCRASHSIGSNLAWYQQKPGQAPRLLIYDATNRAPGIPARFSGSGSGTDFTLTISSLEPEDFAVYYCQQSYTNPTFGGGTKVEIK
B6: 1374_Lib8_scFv (scFv, not shown: small tags and cut ends)
scFv: EVQLVESGGGLVQPGRSLRLSCAASGVDFSTYAMHWVRQAPGKGLEWVSAISSSGAYTDYADSVEGRFTISRDNAKNSLYLQMNSLRAEDTAVYYCATDRGPFSGYGTQGWFDPWGQGTLVTVSSSGGSTITSYNVYYTKLSSSGTDIQMTQSPSSLSASVGDRVTITCRASQTIRSYLAWYQQKPGKAPKLLIYGASDLQSGVPSRFSGSGSGTDFTLTISSLQPEDVATYYCQQYANFPITFGGGTKVEIK
B7: 1405_Lib8_scFv (scFv, not shown: small tags and cut ends)
scFv: B6 scFv with Q173R, T174D, R176T, G196H, D199T, Q201E, S202A, A238G, N239D, I242P
B8: 9621_Lib8_scFv (scFv, not shown: small tags and cut ends)
scFv: EVQLVESGGGLVQPGRSLRLSCAASGFSFSMYAMHWVRQAPGKGLEWVSAISPSGDATDYADSVEGRFTISRDNAKNSLYLQMNSLRAEDTAVYYCARGMQDYGHYYYYYMDVWGKGTTVTVSSSGGSTITSYNVYYTKLSSSGTDIQMTQSPSSLSASVGDRVTITCRASQDISTSLAWYQQKPGKAPKLLIYGASSLETGVPSRFSGSGSGTDFTLTISSLQPEDVATYYCQQGYIAPRTFGGGTKVEIK
B9: Lib6_P3_A4_scFv (scFv)
scFv: QVQLVQSGAEVKKPGASVKVSCKVSGDTLSNYAIHWVRQAPGKGLEWMGGINPNAGTTIYAQKFQGRVTMTEDTSTDTAYMELSSLKSEDTAVYYCARDSSSWCPVGYYYYYMDVWGKGTTVTVSSSGGSTITSYNVYYTKLSSSGTDIQMTQSPSSVSASVGDRVTITCRASQSIGDFLAWYQQKPGKAPKLLIYDASHLQTGVPSRFSGSGSGTDFTLTISSLQPEDFANYYCQQTSTIPPTFGGGTKVEIK
notes: VH-linker-VL; not shown: C-terminal 3xFLAG and SV5 tags
B10: Lib4_P2_D1_scFv (scFv)
scFv: B9 scFv
notes: as for B9
B11: Lib1_P1_A5_scFv (scFv)
scFv: B9 scFv
notes: as for B9
B12: 4761_Lib8_scFv (scFv)
scFv: EVQLVESGGGLVQPGRSLRLSCAASGFTFSSDTMHWVRQAPGKGLEWVSAISSSGDHTDYADSVEGRFTISRDNAKNSLYLQMNSLRAEDTAVYYCAREGLRGYYFDYWGQGTLVTVSSSGGSTITSYNVYYTKLSSSGTDIQMTQSPSSLSASVGDRVTITCRASQGISGHLAWYQQKPGKAPKLLIYAASALQSGVPSRFSGSGSGTDFTLTISSLQPEDVATYYCQQSHSLPWTFGGGTKVEIK
notes: as for B9
B13: 9312_Lib8_scFv (scFv)
scFv: EVQLVESGGGLVQPGRSLRLSCAASGFSLSTYDMHWVRQAPGKGLEWVSAISSSGDTRDYADSVEGRFTISRDNAKNSLYLQMNSLRAEDTAVYYCARAFWGGDAFDIWGQGTMVTVSSSGGSTITSYNVYYTKLSSSGTDIQMTQSPSSLSASVGDRVTITCRASQTIGYWLAWYQQKPGKAPKLLIYGASTLEGGVPSRFSGSGSGTDFTLTISSLQPEDVATYYCQHSYSAPPTFGGGTKVEIK
notes: as for B9
B14: Lib1_P1_A9_scFv (scFv)
scFv: QVQLVQSGAEVKKPGASVKVSCKVSGDTLSSYGIHWVRQAPGKGLEWMGGSIPSFGTAIYAQKFQGRVTMTEDTSTDTAYMELSSLKSEDTAVYYCTSEGPWLPFFSFDYWGQGTLVTVSSSGGSTITSYNVYYTKLSSSGTDIQMTQSPSSVSASVGDRVTITCRASQGISRNLAWYQQKPGKAPKLLIYKASSLASGVPSRFSGSGSGTDFTLTISSLQPEDFANYYCQQSFSTPVTFGGGTKVEIK
notes: as for B9
B15: Lib1_P1_F10_scFv (scFv)
scFv: QVQLVQSGAEVKKPGASVKVSCKVSGYTFSSSGIHWVRQAPGKGLEWMGGIFPNFGTAIYAQKFQGRVTMTEDTSTDTAYMELSSLKSEDTAVYYCARESDFWSGSFTNWGQGTLVTVSSSGGSTITSYNVYYTKLSSSGTDIQMTQSPSSVSASVGDRVTITCRASRSIGNWLAWYQQKPGKAPKLLIYDAFNRASGVPSRFSGSGSGTDFTLTISSLQPEDFANYYCQQSYSTLPRYSFGGGTKVEIK
notes: as for B9
B16: 5662_Lib8_scFv (scFv)
scFv: EVQLVESGGGLVQPGRSLRLSCAASGFNFHNYDMHWVRQAPGKGLEWVSAIDISGQSTDYADSVEGRFTISRDNAKNSLYLQMNSLRAEDTAVYYCAREGWYGGVFDYWGQGTLVTVSSSGGSTITSYNVYYTKLSSSGTDIQMTQSPSSLSASVGDRVTITCRASQDIANWLAWYQQKPGKAPKLLIYGASESGVGVPSRFSGSGSGTDFTLTISSLQPEDVATYYCQQSLTMKTFGGGTKVEIK
notes: as for B9
B17: 1675_Lib1_scFv (scFv)
scFv: QVQLVQSGAEVKKPGASVKVSCKVSGVTLTSSAISWVRQAPGKGLEWMGGITPIFGTPIYAQKFQGRVTMTEDTSTDTAYMELSSLKSEDTAVYYCATDYGYPFWAFDIWGQGTMVTVSSSGGSTITSYNVYYTKLSSSGTDIQMTQSPSSVSASVGDRVTITCRASQGIYSALAWYQQKPGKAPKLLIYESSKRPSGVPSRFSGSGSGTDFTLTISSLQPEDFANYYCEQYASSPPTFGGGTKVEIK
notes: as for B9
B18: Lib1_P1_G3_scFv (scFv)
scFv: QVQLVQSGAEVKKPGASVKVSCKVSGYTSRQYIHWVRQAPGKGLEWMGWVTPIFGTTNYAQKFQGRVTMTEDTSTDTAYMELSSLKSEDTAVYYCAREWTGTTAFDIWGQGTLVTVSSSGGSTITSYNVYYTKLSSSGTDIQMTQSPSSVSASVGDRVTITCRASQDIGHYLAWYQQKPGKAPKLLIYAASNRASGVPSRFSGSGSGTDFTLTISSLQPEDFANYYCQQGYSAPYGFGGGTKVEIK
notes: as for B9
B19: 17561_Lib6_scFv (scFv)
scFv: EVQLVQSGAEVKKPGASVKVSCKASGYTFTDLPISWVRQAPGQGLEWMGWINPYTGDTNYAQKLQGRGTMTTDPSTSTAYMELRSLRSDDTAVYYCARDGVILGYYYYYGMDVWGQGTTVTVSSSGGSTITSYNVYYTKLSSSGTESALTQPASVSGSPGQSITISCTGTDLGSKSVSWYQQHPGKAPKLMIYDNFNRPSGVSNRFSGSKSGNTASLTISGLQAEDEADYYCSSRTVSGTYVFGGGTKLTVL
notes: as for B9

Molecular target: T1, biotinylated human VWF cysteine knot …
Experiment: SPR, scFv captured on anti-SV5, pH 7.4
Source text: (§1) Briefly, a sensor chip was activated and coupled with an anti-SV5 mouse monoclonal antibody using amine coupling. The soluble scFvs in crude yeast supernatants were printed on the anti-SV5 lawn. […] From the measured association (kₒₙ) and dissociation (koff) rate constants, an apparent equilibrium dissociation constant (Kd=koff/kₒₙ) was estimated. Due to the dimeric state of the CK construct and consequent possibility for simultaneous binding of captured scFv to both monomers in the CK dimer, the SPR setup was expected to overestimate the binding affinity.

binding result | Binder
binds | B1
binds | B2
binds | B3
binds | B4
binds | B5
binds | B6
binds | B7
binds | B8

molecular target: T3, biotinylated human VWF cysteine knot (CK) domain construct (human, UniProt P04275 2724-2813, biotinylated in vitro (BirA) on the biotinylation tag; one N-glycan); experiment: SPR, scFv captured via anti-SV5, CK domain injected, pH 5.5, apparent Kd;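 further: scFvs from crude yeast supernatants captured on chip-bound anti-SV5 antibody, Kd computed as koff divided by kon, dimeric CK construct likely makes affinity appear higher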
T3 construct: Expressed in HEK293 EBNA cells; disulfide-linked homodimer; also called human VWF CK; human VWF CK domain; not shown: in vitro biotinylation tag, HRV-3C site and 3 VWF residues before the CK domain

Kd | Binder
0.52 nM | B9
0.984 nM | B10
5.02 nM | B11
1.33 nM | B12
21.6 nM | B13
0.018 nM | B14
15.3 nM | B15
0.687 nM | B16
0.03 nM | B17
0.029 nM | B18
1.79 nM | B19

molecular target: T3, biotinylated human VWF cysteine knot …; experiment: SPR, scFv captured via anti-SV5, CK domain injected, pH 7.4, apparent Kd;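 further: scFvs from crude yeast supernatants printed on an amine-coupled anti-SV5 lawn, Kd computed as koff over kon, likely overestimating affinity because the CK construct is dimeric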
Source text: as §1

Kd | Binder
4.97 nM | B9
5.02 nM | B10
6.37 nM | B11
7.56 nM | B12
6.56 nM | B13
0.051 nM | B14
4.97 nM | B15
4.31 nM | B16
0.077 nM | B17
0.073 nM | B18
9.25 nM | B19

Molecular target: T2, biotinylated cynomolgus monkey VWF …
Experiment: as above
Source text: as §1

Kd | Binder
3.46 nM | B9
0.517 nM | B10
1.74 nM | B11
2.67 nM | B12
1.8 nM | B13
0.205 nM | B14
1.5 nM | B15
1.36 nM | B16
0.052 nM | B17
0.032 nM | B18
5.24 nM | B19
